Experimental data published in the supplement of paper PMC12667976.

B1: library; numbered along this chain (parent)
chain: MATDAALRRLLRLHRTEIAVAVDSAFPLLHALADHDVVPEDKFQETLHLKEKEGCPQAFHALLSWLLTQDSTAILDFWRVLFKDYNLERYGRLQPILDSFPKDVDLSQPRKGRKPPAVPKALVPPPRLPTKRKASEEARAAAPAALTPRGTASPGSQLKAKPPKKPESSAEQQRLPLGNGIQTMSASVQRAVAMSSGDVPGARGAVEGILIQQVFESGGSKKCIQVGGEFYTPSKFEDSGSGKNKARSSSGPKPLVRAKGAQGAAPGGGEARLGQQGSVPAPLALPSDPQLHQKNEDECAVCRDGGELICCDGCPRAFHLACLSPPLREIPSGTWRCSSCLQATVQEVQPRAEEPRPQEPPVETPLPPGLRSAGEEVRGPPGEPLAGMDTTLVYKHLPAPPSAAPLPGLDSSALHPLLCVGPEGQQNLAPGARCGVCGDGTDVLRCTHCAAAFHWRCHFPAGTSRPGTGLRCRSCSGDVTPAPVEGVLAPSPARLAPGPAKDDTASHEPALHRDDLESLLSEHTFDGILQWAIQSMARPAAPFPS

Variants of: B1
Assay: AIRE transcriptional activation functional score (insulin promoter-GFP; nonsense median 0, synonymous median 1) (normalised score); higher = higher AIRE activity (more reporter activation)
Conditions: with insulin promoter-GFP reporter in HEK293
Procedure, shortened: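 Three regions of AIRE were covered by codon-optimized NNN-codon libraries, which Bxb1 recombinase integrated into Flp-In T-REx HEK293 landing-pad cells that carry an insulin core promoter-GFP reporter. Integrants (mCherry+, BFP−) were sorted at day 7 and expanded 7 days, and then the top 10% GFP population and the unselected integrant population were tile-sequenced. The functional score is the enrichment of each variant in select versus non-select cells, with wild type subtracted. Variants required 10 counts per million in non-select, and values were rescaled to a nonsense median of 0 and a synonymous median of 1, then averaged over biological replicates.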

AIRE transcriptional activation functional score, by site and new letter:
E508: C 0.854, L 0.506, I 0.786, M 0.536, F 0.724, G 0.721, N 0.552, K 0.0783, A 0.896
D503: T 1.41, E 0.774, C 0.896, F 0.724, L 1, Y 1.14, I 0.789, R 0.543, A 0.958, V 0.937, G 0.835, H 0.851, N 0.852, P 0.73, K 0.372, Q 0.845, S 0.908
R494: F 0.918, Q 0.696, P 0.439, T 0.134, A 0.321, V 1.27, W 1.41, C 0.847, K 0.735, M 0.56, G 0.344, L 0.489, Y 0.846, S 0.361, H 1.7, I 0.785, E 0.493
P492: L 1.02, T 1.31, K 0.595, Q 0.812, I 1.13, G 1.01, C 0.756, W 0.687, M 1.76, E 0.938, A 0.732, F 1.04, S 1.03, N 1.18, Y 0.427, D -0.0101, R 0.779, V 1.07, H 0.521
P499: Y 1.13, N 0.266, H 1.16, G 1.31, Q 1.15, W 1.37, A 1.22, V 1.21, D 0.797, L 1.11, K 0.747, C 0.764, R 0.761, S 1.1, F 1.11, I 1.18, T 1.32, E 0.508
S491: H 1.42, V 0.901, E 1.06, D 0.749, N 0.925, I 1.1, R 0.586, L 0.845, Y 1.35, C 1.29, F 1.05, M 1.31, K 0.437, G 0.752, A 0.995, W 1.03, Q 0.998, P 1.1, T 0.571
H507: F 1.56, S 0.954, R 0.823, D 0.604, E 0.521, V 1.12, I 1.27, K 0.802, Y 1.18, M 1.47, L 1.01, Q 0.898, T 0.361, G 0.805, C 0.78, N 1.19, A 0.96, P 1.02
L495: S 0.995, K 0.745, P 0.262, H 1.23, M 0.186, Q 0.974, Y 1.35, C 0.97, F 1.18, T 0.948, V 1.07, D 1.68, G 1.05, E 1, A 1.42, R 0.848, I 1.22
D502: F 1.35, S 0.804, W 1.04, N 0.775, A 0.926, I 1.02, H 1.15, Q 0.924, T 0.991, Y 1.33, L 0.916, P 0.765, G 1.04, R 0.415, C 0.85, M 0.261, E 0.952, K 0.812, V 0.937
P497: K 0.828, Y 1.1, A 1.16, L 1.34, W 0.669, E 0.495, M 1.19, R 0.646, F 1.03, Q 1.02, V 1.19, C 1.28, H 0.871, S 0.852, D 0.292, G 1.29, T 1.09, N 1.05, I 1.13
G498: Q 0.969, K 0.572, C 1.23, A 1.09, L 1.11, M 1.24, S 0.556, Y 1.2, I 0.895, N 0.869, R 0.839, D 0.318, T 1.09, H 1.42, V 1.36, E 1.1, W 1.45
P490: C 1.26, K 1.17, I 1.17, N 0.697, V 0.606, F 0.986, Q 0.417, D 0.28, R 1.07, S 1.11, H 0.603, E 0.916, W -0.0714, T 1.13, G 1.51, M 0.144, L 1.12
S506: T 0.197, V 0.824, R 0.768, W 0.477, P 1.11, K 0.443, A 1.36, G 0.799, M 0.671, E 0.655, Y 1.42, D 1.11, Q 0.92, N 0.728, F 0.873, I 1.63, H 1.08, L 0.875, C 1.39
A493: L 1.09, I 1.04, E 0.985, T 0.878, M 1.19, Y 1.13, W 0.996, Q 0.91, R 1.15, H 1.46, F 1.17, G 1.15, C 1.13, D 0.802, V 1.1, S 1.29, P 0.631, N 1.04, K 0.774
A500: G 0.758, H 1.22, S 1.17, Y 0.944, K 0.785, C 1.07, I 1.1, E 0.98, V 1.04, W 1.42, N 0.646, R 0.915, D 1.19, Q 1.34, P 0.844, M 0.733, F 0.977, T 1.12, L 0.907
K501: H 0.51, S 1.3, F 1.17, M 0.223, A 0.451, N 1.03, C 0.625, Y 0.863, V 0.712, R 1.11, L 0.792, Q 1.08, D 0.395, P 0.836, W 0.734, T 1.04, E 0.49, I 0.714, G 0.947
A496: S 1.02, V 0.988, R 0.864, T 0.81, G 0.999, L 1.15, D 0.267, K 0.412, Q 1.04, Y 1.07, F 1.07, M 1.5, H 1.29, N 0.726, P 0.91, W 1.64, I 1.04, C 1.01, E 0.99
T504: S 1.44, E 0.961, R 0.922, A 1.58, G 0.95, F 0.918, D 1.79, M 0.913, L 0.843, V 0.558, Q 1.7, N 0.713, Y 1.77, I 1.6, C 1.15, W 1.23, K 0.99
A505: G 0.337, V 0.997, C 0.52, K 0.78, R 0.832, P 1.01, S 0.985, F 0.703, L 0.848, Y 1.59, I 1.09, D 0.657, E 0.669, H -0.421, M 0.663, T -0.258
